Assay results as given in paper doi:10.1101/686790.

T1: GST-HP1γ-Hinge (UniProt P23198 77-111)
T1 chain: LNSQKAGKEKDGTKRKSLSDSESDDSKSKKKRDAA


How the values were obtained:
GST-HP1γ-Hinge = target: T1, GST-HP1γ-Hinge; test: EMSA
GST-HP1γ = GST-HP1γ (UniProt P23198 11-183); test: EMSA
GST-HP1γ, sequence (P23198 11-183): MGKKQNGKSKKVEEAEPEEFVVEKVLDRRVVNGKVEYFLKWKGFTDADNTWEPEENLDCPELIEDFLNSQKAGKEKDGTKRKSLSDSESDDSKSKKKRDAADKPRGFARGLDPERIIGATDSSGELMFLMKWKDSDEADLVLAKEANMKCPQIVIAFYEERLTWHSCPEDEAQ

Row | Binder | binding result (GST-HP1γ-Hinge) | binding result (GST-HP1γ)
1 | UCUGGCACACAGCCACACGCUCAC (ssRNA) [CACACA] | binds | binds
2 | CGCUUCGGGCUCGCCGCUCGCUUCC (ssRNA) [Scrambled] | no binding | –
3 | GUGAGCUCCAGGCCAGUGAGAGACCCUGUCUCAA (ssRNA) [GAGAGA] | binds | –
